Data taken from paper PMC12865031, “Mechanistic insights into PCBP1-driven unfolding of selected i-motif DNA at G1/S checkpoint”.

Tests used:
[1] = molecular target: T1, PCBP1 (wild type) (UniProt Q15365 1-356); assay: MST; pH 6.4, i-motif; stronger than pH 8.0; MST: 20 mM MES pH 6.4, phosphate pH 7.0 or Tris-Cl pH 8.0, 100 mM NaCl, 25 C; EMSA: 20 mM Bis-Tris pH 6.4 or Tris-HCl pH 8.0, 100 mM NaCl, 0.25 mg/mL BSA, 25 C; NMR/CD: 20 mM MES pH 6.4, 100 mM NaCl; footprinting 20 mM MES pH 6.4, 50 mM NaCl; conditions: protein: recombinant; tags: His tag (pET-His1a), removed by TEV; label: 5'-Cy5 (MST); i-motif at pH 6.4 and 7.0; unfolded at pH 8.0
[2] = molecular target: T2, PCBP1 KH1+2 (UniProt Q15365 1-169); assay: MST; pH 6.4; no structural selectivity; MST: 20 mM MES pH 6.4, phosphate pH 7.0 or Tris-Cl pH 8.0, 100 mM NaCl, 25 C; EMSA: 20 mM Bis-Tris pH 6.4 or Tris-HCl pH 8.0, 100 mM NaCl, 0.25 mg/mL BSA, 25 C; NMR/CD: 20 mM MES pH 6.4, 100 mM NaCl; footprinting 20 mM MES pH 6.4, 50 mM NaCl; conditions: protein: recombinant; tags: His tag (pET-His1a), removed by TEV; label: 5'-Cy5 (EMSA, MST); intramolecular i-motif at pH 6.4; unfolded at pH 7.0 and 8.0
[3] = molecular target: T1, PCBP1 (wild type); assay: EMSA; pH 6.4, i-motif; MST: 20 mM MES pH 6.4, phosphate pH 7.0 or Tris-Cl pH 8.0, 100 mM NaCl, 25 C; EMSA: 20 mM Bis-Tris pH 6.4 or Tris-HCl pH 8.0, 100 mM NaCl, 0.25 mg/mL BSA, 25 C; NMR/CD: 20 mM MES pH 6.4, 100 mM NaCl; footprinting 20 mM MES pH 6.4, 50 mM NaCl; conditions: protein: recombinant; tags: His tag (pET-His1a), removed by TEV; label: 5'-Cy5 (EMSA, MST); intramolecular i-motif at pH 6.4; unfolded at pH 7.0 and 8.0
[4] = molecular target: T3, PCBP1 KH1+2;PCBP1 KH3 (Homo sapiens?;Homo sapiens?, UniProt Q15365;Q15365 1-169;269-356, |); assay: MST; pH 6.4; affinity and selectivity for i-motif restored; MST: 20 mM MES pH 6.4, phosphate pH 7.0 or Tris-Cl pH 8.0, 100 mM NaCl, 25 C; EMSA: 20 mM Bis-Tris pH 6.4 or Tris-HCl pH 8.0, 100 mM NaCl, 0.25 mg/mL BSA, 25 C; NMR/CD: 20 mM MES pH 6.4, 100 mM NaCl; footprinting 20 mM MES pH 6.4, 50 mM NaCl; conditions: protein: recombinant;recombinant, tags: His tag (pET-His1a), removed by TEV;His tag (pET-His1a), copies: 1;1, label: 5'-Cy5 (EMSA, MST), intramolecular i-motif at pH 6.4, unfolded at pH 7.0 and 8.0
[5] = molecular target: T1, PCBP1 (wild type); assay: EMSA; pH 6.4, i-motif; two shifted bands; MST: 20 mM MES pH 6.4, phosphate pH 7.0 or Tris-Cl pH 8.0, 100 mM NaCl, 25 C; EMSA: 20 mM Bis-Tris pH 6.4 or Tris-HCl pH 8.0, 100 mM NaCl, 0.25 mg/mL BSA, 25 C; NMR/CD: 20 mM MES pH 6.4, 100 mM NaCl; footprinting 20 mM MES pH 6.4, 50 mM NaCl; conditions: protein: recombinant; tags: His tag (pET-His1a), removed by TEV; label: 5'-Cy5 (EMSA, MST); intramolecular i-motif with co-existing hairpin at pH 6.4; unfolded at pH 7.0 and 8.0
[6] = molecular target: T1, PCBP1 (wild type); assay: EMSA; pH 6.4; MST: 20 mM MES pH 6.4, phosphate pH 7.0 or Tris-Cl pH 8.0, 100 mM NaCl, 25 C; EMSA: 20 mM Bis-Tris pH 6.4 or Tris-HCl pH 8.0, 100 mM NaCl, 0.25 mg/mL BSA, 25 C; NMR/CD: 20 mM MES pH 6.4, 100 mM NaCl; footprinting 20 mM MES pH 6.4, 50 mM NaCl; conditions: protein: recombinant; tags: His tag (pET-His1a), removed by TEV; label: 5'-Cy5 (EMSA); unfolded
[7] = molecular target: T1, PCBP1 (wild type); assay: CD titration; stronger blue-shift than wild-type BCL2; MST: 20 mM MES pH 6.4, phosphate pH 7.0 or Tris-Cl pH 8.0, 100 mM NaCl, 25 C; EMSA: 20 mM Bis-Tris pH 6.4 or Tris-HCl pH 8.0, 100 mM NaCl, 0.25 mg/mL BSA, 25 C; NMR/CD: 20 mM MES pH 6.4, 100 mM NaCl; footprinting 20 mM MES pH 6.4, 50 mM NaCl; conditions: protein: recombinant; tags: His tag (pET-His1a), removed by TEV; i-motif without hairpin
[8] = molecular target: T2, PCBP1 KH1+2; assay: bromine footprinting; pH 6.4; increased cleavage at C3-C5 and C12-C14; MST: 20 mM MES pH 6.4, phosphate pH 7.0 or Tris-Cl pH 8.0, 100 mM NaCl, 25 C; EMSA: 20 mM Bis-Tris pH 6.4 or Tris-HCl pH 8.0, 100 mM NaCl, 0.25 mg/mL BSA, 25 C; NMR/CD: 20 mM MES pH 6.4, 100 mM NaCl; footprinting 20 mM MES pH 6.4, 50 mM NaCl; conditions: protein: recombinant; tags: His tag (pET-His1a), removed by TEV; label: 3'-Cy5; intramolecular i-motif at pH 6.4
[9] = molecular target: T1, PCBP1 (wild type); assay: bromine footprinting; pH 6.4; enhanced cleavage across all Cs; MST: 20 mM MES pH 6.4, phosphate pH 7.0 or Tris-Cl pH 8.0, 100 mM NaCl, 25 C; EMSA: 20 mM Bis-Tris pH 6.4 or Tris-HCl pH 8.0, 100 mM NaCl, 0.25 mg/mL BSA, 25 C; NMR/CD: 20 mM MES pH 6.4, 100 mM NaCl; footprinting 20 mM MES pH 6.4, 50 mM NaCl; conditions: protein: recombinant; tags: His tag (pET-His1a), removed by TEV; label: 3'-Cy5; intramolecular i-motif at pH 6.4
[10] = molecular target: T3, PCBP1 KH1+2;PCBP1 KH3; assay: bromine footprinting; pH 6.4; cleavage enhanced across all Cs; MST: 20 mM MES pH 6.4, phosphate pH 7.0 or Tris-Cl pH 8.0, 100 mM NaCl, 25 C; EMSA: 20 mM Bis-Tris pH 6.4 or Tris-HCl pH 8.0, 100 mM NaCl, 0.25 mg/mL BSA, 25 C; NMR/CD: 20 mM MES pH 6.4, 100 mM NaCl; footprinting 20 mM MES pH 6.4, 50 mM NaCl; conditions: protein: recombinant;recombinant, tags: His tag (pET-His1a), removed by TEV;His tag (pET-His1a), copies: 1;1, label: 3'-Cy5, intramolecular i-motif at pH 6.4

T1 sequence (Q15365 whole entry): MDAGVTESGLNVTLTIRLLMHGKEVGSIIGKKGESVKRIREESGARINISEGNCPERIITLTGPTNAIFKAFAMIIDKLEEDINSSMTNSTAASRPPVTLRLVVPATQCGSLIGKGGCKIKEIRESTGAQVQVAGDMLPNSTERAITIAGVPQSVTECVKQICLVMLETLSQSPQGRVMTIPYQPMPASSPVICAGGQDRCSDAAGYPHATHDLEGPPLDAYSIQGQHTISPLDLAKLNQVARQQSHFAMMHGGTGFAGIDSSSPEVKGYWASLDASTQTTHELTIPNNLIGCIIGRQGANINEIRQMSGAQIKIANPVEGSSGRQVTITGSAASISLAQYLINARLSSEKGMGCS
T2 sequence (Q15365 1-169): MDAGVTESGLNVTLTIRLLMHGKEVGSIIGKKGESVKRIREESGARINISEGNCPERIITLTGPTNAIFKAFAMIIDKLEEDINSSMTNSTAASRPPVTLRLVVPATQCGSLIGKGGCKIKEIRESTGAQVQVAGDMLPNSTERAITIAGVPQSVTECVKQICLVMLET
T3 sequence (Q15365 1-169, chain 1 of 2): as the sequence (Q15365 1-169) above
T3 sequence (Q15365 269-356, chain 2 of 2): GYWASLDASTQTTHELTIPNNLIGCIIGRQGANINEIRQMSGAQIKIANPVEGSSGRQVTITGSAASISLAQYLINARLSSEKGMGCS

CCCCCCCTTTCCCCCCCTTTCCCCCCCTTTCCCCCCC (structured_DNA) [C7T3-iMfs]
binding result [1]: binds

AATCCCACCCCTCCCATCCCTT (structured_DNA) [cMYC-iMfs]
binding result [2]: binds
binding result [3]: binds
binding result [4]: binds

CAGCCCCGCTCCCGCCCCCTTCCTCCCGCGCCCGCCCCT (structured_DNA) [BCL2-iMfs]
binding result [5]: binds

TGTCCCCACACCCCTGTCCCCACACCCCTGT (structured_DNA) [ILPR-iMfs]
binding result [3]: binds

CCCTAACCCTAACCCTAACCCT (structured_DNA) [hTeloC-iMfs]
binding result [3]: binds

TACACTCACACTCACACTCACACTCAA (ssDNA) [mutC]
binding result [6]: no binding

CAGCCCCGCTCCCGCCCCCTTCCTCCCTCTCCCGCCCCT (structured_DNA) [BCL2-G10TG12T]
binding result [7]: binds

CATCCCCTCTCCCTCCCCCTTCCTCCCTCTCCCTCCCCT (structured_DNA) [BCL2-Gall>T]
binding result [7]: binds

AATCCCACCCCTCCCATCCCTTTTT (structured_DNA) [cMYC-iMfs-Br]
binding result [8]: binds
binding result [9]: binds
binding result [10]: binds
